Laboratory results published in publication PMC9798004 (Frontiers in Psychiatry, 2022).

Key:
Assay in all cases: PathHunter β-arrestin assay
Format in all cases: cell-based
PTHR2 = biological target: T1, PTHR2 (Homo sapiens, UniProt P49190); settings: screen, control agonist; CHO, 37C, 2HR
T1 construct: purchased Eurofins DiscoverX (PathHunter gpcrMAX)

PTGIR = biological target: T2, PTGIR (Homo sapiens, UniProt P43119); settings: screen, control agonist; CHO, 37C, 2HR
T2 construct: purchased Eurofins DiscoverX (PathHunter gpcrMAX)

BDKRB1 = biological target: T3, BDKRB1 (Homo sapiens, UniProt P46663); settings: screen, control agonist; CHO, 37C, 2HR
T3 construct: purchased Eurofins DiscoverX (PathHunter gpcrMAX)

RXFP3 = biological target: T4, RXFP3 (Homo sapiens, UniProt Q9NSD7); settings: screen, control agonist; CHO, 37C, 2HR
T4 construct: purchased Eurofins DiscoverX (PathHunter gpcrMAX)
T4 sequence (Q9NSD7 1-469): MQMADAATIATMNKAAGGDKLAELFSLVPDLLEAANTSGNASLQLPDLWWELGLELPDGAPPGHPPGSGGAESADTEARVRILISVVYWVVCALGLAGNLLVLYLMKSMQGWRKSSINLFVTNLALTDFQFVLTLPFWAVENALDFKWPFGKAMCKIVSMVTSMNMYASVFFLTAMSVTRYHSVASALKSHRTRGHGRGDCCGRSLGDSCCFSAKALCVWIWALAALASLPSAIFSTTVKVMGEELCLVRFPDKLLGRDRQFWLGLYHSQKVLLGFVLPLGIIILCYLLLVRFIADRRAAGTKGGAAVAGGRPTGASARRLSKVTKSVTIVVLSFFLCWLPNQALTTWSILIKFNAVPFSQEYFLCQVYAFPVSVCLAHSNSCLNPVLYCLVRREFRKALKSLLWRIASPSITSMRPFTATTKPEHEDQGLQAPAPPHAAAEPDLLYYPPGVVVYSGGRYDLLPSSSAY

NPSR1b = biological target: T5, NPSR1b (Homo sapiens, UniProt Q6W5P4); settings: screen, control agonist; U2OS, 37C, 2HR
T5 construct: purchased Eurofins DiscoverX (PathHunter gpcrMAX)
T5 sequence (Q6W5P4 1-377 isoform Q6W5P4-4): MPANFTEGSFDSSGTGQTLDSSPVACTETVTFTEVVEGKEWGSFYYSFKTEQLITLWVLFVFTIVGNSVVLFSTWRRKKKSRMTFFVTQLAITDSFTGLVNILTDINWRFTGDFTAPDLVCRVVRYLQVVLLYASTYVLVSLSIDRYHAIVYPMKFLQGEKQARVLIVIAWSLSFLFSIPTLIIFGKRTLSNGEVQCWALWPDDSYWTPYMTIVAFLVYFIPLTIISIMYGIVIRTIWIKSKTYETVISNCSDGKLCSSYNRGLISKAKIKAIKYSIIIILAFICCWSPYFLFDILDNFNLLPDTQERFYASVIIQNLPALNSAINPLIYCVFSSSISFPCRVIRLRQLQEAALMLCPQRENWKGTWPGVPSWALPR

TACR3 = biological target: T6, TACR3 (Homo sapiens, UniProt P29371); settings: screen, control agonist; CHO, 37C, 2HR
T6 construct: purchased Eurofins DiscoverX (PathHunter gpcrMAX)
T6 sequence (P29371 1-465): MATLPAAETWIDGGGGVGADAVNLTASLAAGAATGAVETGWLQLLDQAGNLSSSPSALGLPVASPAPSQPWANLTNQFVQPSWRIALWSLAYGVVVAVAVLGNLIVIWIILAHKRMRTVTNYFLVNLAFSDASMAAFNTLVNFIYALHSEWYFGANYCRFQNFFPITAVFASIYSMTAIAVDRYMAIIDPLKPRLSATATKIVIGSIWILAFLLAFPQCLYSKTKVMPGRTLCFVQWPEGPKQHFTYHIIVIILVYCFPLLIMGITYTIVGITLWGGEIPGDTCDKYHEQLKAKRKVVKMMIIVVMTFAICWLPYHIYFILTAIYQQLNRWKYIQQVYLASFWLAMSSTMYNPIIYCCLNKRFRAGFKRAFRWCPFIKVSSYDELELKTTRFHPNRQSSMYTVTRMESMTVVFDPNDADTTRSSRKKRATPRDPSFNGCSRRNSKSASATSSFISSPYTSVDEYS

CALCR = biological target: T7, CALCR (Homo sapiens, UniProt P30988); settings: screen, control agonist; U2OS, 37C, 2HR
T7 construct: purchased Eurofins DiscoverX (PathHunter gpcrMAX)
T7 sequence (P30988 25-474): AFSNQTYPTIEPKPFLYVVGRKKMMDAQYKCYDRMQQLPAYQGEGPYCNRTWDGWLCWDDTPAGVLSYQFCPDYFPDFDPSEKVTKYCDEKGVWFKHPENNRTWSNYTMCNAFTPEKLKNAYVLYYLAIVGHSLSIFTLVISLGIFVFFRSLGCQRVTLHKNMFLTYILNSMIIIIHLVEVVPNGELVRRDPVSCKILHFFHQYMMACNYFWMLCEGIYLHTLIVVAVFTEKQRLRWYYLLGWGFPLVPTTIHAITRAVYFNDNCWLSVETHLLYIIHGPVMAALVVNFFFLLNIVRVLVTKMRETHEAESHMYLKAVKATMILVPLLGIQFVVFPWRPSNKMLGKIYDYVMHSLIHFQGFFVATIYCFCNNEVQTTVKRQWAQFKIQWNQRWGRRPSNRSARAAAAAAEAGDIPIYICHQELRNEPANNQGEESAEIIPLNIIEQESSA

CALCR-RAMP2 = CALCR-RAMP2 (Homo sapiens, UniProt O60895+P30988); settings: control agonist
CALCR-RAMP3 = biological target: T8, CALCR-RAMP3 (Homo sapiens, UniProt O60896+P30988); settings: screen, control agonist; CHO, RT, 2HR
T8 construct: purchased Eurofins DiscoverX (PathHunter gpcrMAX)
T8 sequence (P30988 25-474): T7 sequence (P30988 25-474)
T8 sequence (O60896 24-148 partner): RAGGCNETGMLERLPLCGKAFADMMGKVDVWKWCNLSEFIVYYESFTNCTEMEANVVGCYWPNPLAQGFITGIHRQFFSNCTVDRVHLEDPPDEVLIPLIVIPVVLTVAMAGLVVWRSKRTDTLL

P2RY1 = biological target: T9, P2RY1 (Homo sapiens, UniProt P47900); settings: screen, control agonist; U2OS, RT, 2HR
T9 construct: purchased Eurofins DiscoverX (PathHunter gpcrMAX)

P2RY12 = biological target: T10, P2RY12 (Homo sapiens, UniProt Q9H244); settings: screen, control agonist; CHO, RT, 2HR
T10 construct: purchased Eurofins DiscoverX (PathHunter gpcrMAX)

PTGER4 = PTGER4 (Homo sapiens, UniProt P35408); settings: control agonist
Protocol: Follow up experiments were prioritized based on the difference between S/N and CoV. Targets with a >5-fold difference between S/N and CoV were investigated for their potential contribution to the AMB-FUBINACA toxidrome with 10-point concentration-response curves generated in technical replicate (range 1.5–30 μM) using the EC80 of the relevant agonist, where applicable in antagonist mode. Simultaneous agonist and antagonist curves were run in parallel to ensure reliability of the assay (see Supplementary Table 2), with both RC50 and signal to background aligning with historical averages, and Z' >0.5. RC50 was estimated using a four-parameter fit (CBIS Data Analysis Suite, ChemInnovation, San Diego, CA) on normalized data.

PTGER2 = biological target: T11, PTGER2 (Homo sapiens, UniProt P43116); settings: screen, control agonist; CHO, 37C, 2HR
T11 construct: purchased Eurofins DiscoverX (PathHunter gpcrMAX)

[1] = follow-up concentration-response assays

Chain of CALCR-RAMP2 (O60895 43-175 partner, one chain of several): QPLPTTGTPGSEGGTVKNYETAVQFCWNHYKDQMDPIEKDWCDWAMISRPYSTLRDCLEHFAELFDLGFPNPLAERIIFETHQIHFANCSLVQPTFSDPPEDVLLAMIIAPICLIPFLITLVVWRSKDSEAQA
Chain of PTGER4 (P35408 whole entry): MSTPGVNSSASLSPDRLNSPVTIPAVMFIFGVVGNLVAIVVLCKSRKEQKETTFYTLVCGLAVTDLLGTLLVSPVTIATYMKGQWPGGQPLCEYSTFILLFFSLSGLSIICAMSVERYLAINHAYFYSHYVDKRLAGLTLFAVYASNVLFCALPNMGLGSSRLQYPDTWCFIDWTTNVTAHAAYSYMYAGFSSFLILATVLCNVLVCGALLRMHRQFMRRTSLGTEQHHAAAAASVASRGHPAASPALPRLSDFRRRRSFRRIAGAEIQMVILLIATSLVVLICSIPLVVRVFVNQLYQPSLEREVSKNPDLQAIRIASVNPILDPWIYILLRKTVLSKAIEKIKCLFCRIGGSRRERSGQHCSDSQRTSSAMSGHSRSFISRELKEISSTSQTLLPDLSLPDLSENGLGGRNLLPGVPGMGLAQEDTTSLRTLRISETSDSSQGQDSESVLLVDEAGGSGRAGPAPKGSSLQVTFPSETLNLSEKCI
T1 sequence (P49190 25-550): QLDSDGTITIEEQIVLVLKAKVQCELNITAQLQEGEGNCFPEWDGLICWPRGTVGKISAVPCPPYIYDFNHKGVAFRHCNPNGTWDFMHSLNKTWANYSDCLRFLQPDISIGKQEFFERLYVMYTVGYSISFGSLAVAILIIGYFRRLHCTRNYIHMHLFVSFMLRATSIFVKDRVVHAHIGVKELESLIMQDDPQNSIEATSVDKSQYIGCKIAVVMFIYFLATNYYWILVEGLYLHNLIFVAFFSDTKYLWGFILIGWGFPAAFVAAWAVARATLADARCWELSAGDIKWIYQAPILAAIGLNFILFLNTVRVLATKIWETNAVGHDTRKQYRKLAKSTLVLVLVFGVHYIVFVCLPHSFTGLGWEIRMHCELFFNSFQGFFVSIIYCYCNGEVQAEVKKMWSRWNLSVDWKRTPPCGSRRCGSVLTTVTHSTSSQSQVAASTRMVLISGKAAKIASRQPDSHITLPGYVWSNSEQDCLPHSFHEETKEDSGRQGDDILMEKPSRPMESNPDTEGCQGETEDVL
T2 sequence (P43119 whole entry): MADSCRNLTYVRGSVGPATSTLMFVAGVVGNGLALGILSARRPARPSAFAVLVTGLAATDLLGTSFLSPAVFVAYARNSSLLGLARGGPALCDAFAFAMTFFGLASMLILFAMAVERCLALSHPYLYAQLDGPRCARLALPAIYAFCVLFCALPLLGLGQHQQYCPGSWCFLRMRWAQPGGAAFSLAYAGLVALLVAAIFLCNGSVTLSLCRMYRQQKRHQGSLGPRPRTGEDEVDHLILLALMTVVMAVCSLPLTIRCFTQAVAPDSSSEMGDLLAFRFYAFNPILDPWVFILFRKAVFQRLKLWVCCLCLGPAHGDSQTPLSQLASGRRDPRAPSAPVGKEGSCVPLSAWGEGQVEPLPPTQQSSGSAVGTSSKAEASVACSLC
T9 sequence (P47900 whole entry): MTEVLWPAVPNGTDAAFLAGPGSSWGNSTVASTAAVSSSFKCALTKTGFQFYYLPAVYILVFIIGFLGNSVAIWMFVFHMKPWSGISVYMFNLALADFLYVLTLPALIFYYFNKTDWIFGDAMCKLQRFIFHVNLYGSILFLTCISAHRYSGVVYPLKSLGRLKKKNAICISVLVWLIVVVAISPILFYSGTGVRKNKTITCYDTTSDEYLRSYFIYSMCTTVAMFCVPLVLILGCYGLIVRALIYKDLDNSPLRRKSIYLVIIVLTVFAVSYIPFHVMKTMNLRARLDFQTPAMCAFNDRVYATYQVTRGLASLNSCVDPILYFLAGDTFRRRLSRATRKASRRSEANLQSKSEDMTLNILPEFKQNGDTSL
T11 sequence (P43116 whole entry): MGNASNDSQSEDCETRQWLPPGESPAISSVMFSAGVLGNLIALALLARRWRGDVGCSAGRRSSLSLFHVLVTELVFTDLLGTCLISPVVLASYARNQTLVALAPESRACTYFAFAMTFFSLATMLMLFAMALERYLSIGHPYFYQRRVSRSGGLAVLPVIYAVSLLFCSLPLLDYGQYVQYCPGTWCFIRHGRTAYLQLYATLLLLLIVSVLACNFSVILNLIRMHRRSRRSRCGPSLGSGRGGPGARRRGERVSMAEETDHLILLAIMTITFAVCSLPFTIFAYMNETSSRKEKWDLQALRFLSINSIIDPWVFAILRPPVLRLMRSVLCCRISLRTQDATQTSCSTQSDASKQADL
T10 sequence (Q9H244 whole entry, one chain of several): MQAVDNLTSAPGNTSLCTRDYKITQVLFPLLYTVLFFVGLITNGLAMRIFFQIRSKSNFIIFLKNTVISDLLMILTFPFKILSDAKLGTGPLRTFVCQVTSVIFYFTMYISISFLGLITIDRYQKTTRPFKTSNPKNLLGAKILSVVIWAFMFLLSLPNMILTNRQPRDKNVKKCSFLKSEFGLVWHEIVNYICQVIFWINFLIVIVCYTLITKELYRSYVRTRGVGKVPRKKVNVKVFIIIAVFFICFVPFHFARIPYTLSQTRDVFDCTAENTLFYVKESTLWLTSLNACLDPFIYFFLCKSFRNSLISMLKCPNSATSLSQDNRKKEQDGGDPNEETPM
T3 sequence (P46663 whole entry): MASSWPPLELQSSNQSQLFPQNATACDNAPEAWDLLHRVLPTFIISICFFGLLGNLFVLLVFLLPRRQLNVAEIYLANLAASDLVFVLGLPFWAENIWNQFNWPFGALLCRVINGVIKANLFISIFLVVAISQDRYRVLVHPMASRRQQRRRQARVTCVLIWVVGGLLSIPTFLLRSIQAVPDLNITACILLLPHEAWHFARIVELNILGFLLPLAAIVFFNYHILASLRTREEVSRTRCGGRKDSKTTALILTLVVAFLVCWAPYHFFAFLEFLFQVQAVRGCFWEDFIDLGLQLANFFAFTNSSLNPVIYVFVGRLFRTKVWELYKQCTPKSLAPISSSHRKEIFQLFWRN

Molecule: TIP-39
- EC80 (PTHR2): 0.0048 µM

Molecule: CC#CCC(C)[C@H](O)/C=C/[C@@H]1[C@H]2c3cccc(CCCC(=O)O)c3O[C@H]2C[C@H]1O (mixture of isomers) [Beraprost]
- EC80 (PTGIR): 1.7 µM

Molecule: LDA-Bradykinin
- EC80 (BDKRB1): 0.00467 µM

Molecule: Relaxin-3
- EC80 (RXFP3): 0.0627 µM

Molecule: Neuropeptide S (SFRNGVGTGMKKTSFQRAKS; Neuropeptide S; UniProt P0C0P6 70-89, looked up) [control agonist]
- EC80 (NPSR1b): 0.0457 µM

Molecule: Substance P
- EC80 (TACR3): 0.0804 µM

Molecule: Calcitonin
- EC80 (CALCR): 0.0377 µM
- EC80 (CALCR-RAMP2; [1]): 0.035 µM
- EC80 (CALCR-RAMP2; screen, CHO, 37C, 2HR): 0.0305 µM
- EC80 (CALCR-RAMP3): 1.15 µM

Molecule: CSc1nc(N)c2ncn([C@@H]3O[C@H](COP(=O)(O)OP(=O)(O)O)[C@@H](O)[C@H]3O)c2n1 [2-methylthio-ADP]
- EC80 (P2RY1): 0.0414 µM
- EC80 (P2RY12): 0.00157 µM

Molecule: CCCCC[C@H](O)/C=C/[C@H]1[C@H](O)CC(=O)[C@@H]1C/C=C\CCCC(=O)O [Prostaglandin E2]
- EC80 (PTGER4; [1]): 0.00475 µM
- EC80 (PTGER4; screen, HEK, 37C, 2HR): 0.00358 µM
- EC80 (PTGER2): 3.65 µM
